In PMC8298264, “Function of cofactor Akirin2 in the regulation of gene expression in model human neutrophil-like HL60 cells” (Bioscience Reports, 2021):

B1: sp¦Q8IX12¦CCAR1_HUMAN (protein, UniProt Q8IX12 1-1150, looked up)
Cell division cycle and …: MAQFGGQKNPPWATQFTATAVSQPAALGVQQPSLLGASPTIYTQQTALAAAGLTTQTPANYQLTQTAALQQQAAAAAAALQQQYSQPQQALYSVQQQLQQPQQTLLTQPAVALPTSLSLSTPQPTAQITVSYPTPRSSQQQTQPQKQRVFTGVVTKLHDTFGFVDEDVFFQLSAVKGKTPQVGDRVLVEATYNPNMPFKWNAQRIQTLPNQNQSQTQPLLKTPPAVLQPIAPQTTFGVQTQPQPQSLLQAQISAASITPLLQTQPQPLLQQPQQKAGLLQPPVRIVSQPQPARRLDPPSRFSGRNDRGDQVPNRKDDRSRERERERRRSRERSPQRKRSRERSPRRERERSPRRVRRVVPRYTVQFSKFSLDCPSCDMMELRRRYQNLYIPSDFFDAQFTWVDAFPLSRPFQLGNYCNFYVMHREVESLEKNMAILDPPDADHLYSAKVMLMASPSMEDLYHKSCALAEDPQELRDGFQHPARLVKFLVGMKGKDEAMAIGGHWSPSLDGPDPEKDPSVLIKTAIRCCKALTGIDLSVCTQWYRFAEIRYHRPEETHKGRTVPAHVETVVLFFPDVWHCLPTRSEWETLSRGYKQQLVEKLQGERKEADGEQDEEEKDDGEAKEISTPTHWSKLDPKTMKVNDLRKELESRALSSKGLKSQLIARLTKQLKVEEQKEEQKELEKSEKEEDEDDDRKSEDDKEEEERKRQEEIERQRRERRYILPDEPAIIVHPNWAAKSGKFDCSIMSLSVLLDYRLEDNKEHSFEVSLFAELFNEMLQRDFGVRIYKSLLSLPEKEDKKEKDKKSKKDERKDKKEERDDETDEPKPKRRKSGDDKDKKEDRDERKKEDKRKDDSKDDDETEEDNNQDEYDPMEAEEAEDEEDDRDEEEMTKRDDKRDINRYCKERPSKDKEKEKTQMITINRDLLMAFVYFDQSHCGYLLEKDLEEILYTLGLHLSRAQVKKLLNKVVLRESCFYRKLTDTSKDEENHEESESLQEDMLGNRLLLPTPTVKQESKDVEENVGLIVYNGAMVDVGSLLQKLEKSEKVRAEVEQKLQLLEEKTDEDEKTILNLENSNKSLSGELREVKKDLSQLQENLKISENMNLQFENQMNKTIRNLSTVMDEIHTVLKKDNVKNEDKDQKSKENGASV
B2: sp¦Q9BUQ8¦DDX23_HUMAN (protein, UniProt Q9BUQ8 1-820, looked up)
Probable ATP-dependent RNA …: MAGELADKKDRDASPSKEERKRSRTPDRERDRDRDRKSSPSKDRKRHRSRDRRRGGSRSRSRSRSKSAERERRHKERERDKERDRNKKDRDRDKDGHRRDKDRKRSSLSPGRGKDFKSRKDRDSKKDEEDEHGDKKPKAQPLSLEELLAKKKAEEEAEAKPKFLSKAEREAEALKRRQQEVEERQRMLEEERKKRKQFQDLGRKMLEDPQERERRERRERMERETNGNEDEEGRQKIREEKDKSKELHAIKERYLGGIKKRRRTRHLNDRKFVFEWDASEDTSIDYNPLYKERHQVQLLGRGFIAGIDLKQQKREQSRFYGDLMEKRRTLEEKEQEEARLRKLRKKEAKQRWDDRHWSQKKLDEMTDRDWRIFREDYSITTKGGKIPNPIRSWKDSSLPPHILEVIDKCGYKEPTPIQRQAIPIGLQNRDIIGVAETGSGKTAAFLIPLLVWITTLPKIDRIEESDQGPYAIILAPTRELAQQIEEETIKFGKPLGIRTVAVIGGISREDQGFRLRMGCEIVIATPGRLIDVLENRYLVLSRCTYVVLDEADRMIDMGFEPDVQKILEHMPVSNQKPDTDEAEDPEKMLANFESGKHKYRQTVMFTATMPPAVERLARSYLRRPAVVYIGSAGKPHERVEQKVFLMSESEKRKKLLAILEQGFDPPIIIFVNQKKGCDVLAKSLEKMGYNACTLHGGKGQEQREFALSNLKAGAKDILVATDVAGRGIDIQDVSMVVNYDMAKNIEDYIHRIGRTGRAGKSGVAITFLTKEDSAVFYELKQAILESPVSSCPPELANHPDAQHKPGTILTKKRREETIFA
B3: sp¦O43719¦HTSF1_HUMAN (protein, UniProt O43719 2-755, looked up)
17S U2 SnRNP complex …: SGTNLDGNDEFDEQLRMQELYGDGKDGDTQTDAGGEPDSLGQQPTDTPYEWDLDKKAWFPKITEDFIATYQANYGFSNDGASSSTANVEDVHARTAEEPPQEKAPEPTDARKKGEKRKAESGWFHVEEDRNTNVYVSGLPPDITVDEFIQLMSKFGIIMRDPQTEEFKVKLYKDNQGNLKGDGLCCYLKRESVELALKLLDEDEIRGYKLHVEVAKFQLKGEYDASKKKKKCKDYKKKLSMQQKQLDWRPERRAGPSRMRHERVVIIKNMFHPMDFEDDPLVLNEIREDLRVECSKFGQIRKLLLFDRHPDGVASVSFRDPEEADYCIQTLDGRWFGGRQITAQAWDGTTDYQVEETSREREERLRGWEAFLNAPEANRGLRRSDSVSASERAGPSRARHFSEHPSTSKMNAQETATGMAFEEPIDEKKFEKTEDGGEFEEGASENNAKESSPEKEAEEGCPEKESEEGCPKRGFEGSCSQKESEEGNPVRGSEEDSPKKESKKKTLKNDCEENGLAKESEDDLNKESEEEVGPTKESEEDDSEKESDEDCSEKQSEDGSEREFEENGLEKDLDEEGSEKELHENVLDKELEENDSENSEFEDDGSEKVLDEEGSEREFDEDSDEKEEEEDTYEKVFDDESDEKEDEEYADEKGLEAADKKAEEGDADEKLFEESDDKEDEDADGKEVEDADEKLFEDDDSNEKLFDEEEDSSEKLFDDSDERGTLGGFGSVEEGPLSTGSSFILSSDDDDDDI
B4: sp¦Q8WZA0¦LZIC_HUMAN (protein, UniProt Q8WZA0 1-190, looked up)
Protein LZIC: MASRGKTETSKLKQNLEEQLDRLMQQLQDLEECREELDTDEYEETKKETLEQLSEFNDSLKKIMSGNMTLVDELSGMQLAIQAAISQAFKTPEVIRLFAKKQPGQLRTRLAEMDRDLMVGKLERDLYTQQKVEILTALRKLGEKLTADDEAFLSANAGAILSQFEKVSTDLGSGDKILALASFEVEKTKK
B5: sp¦P53618¦COPB_HUMAN (protein, UniProt P53618 2-953, looked up)
Coatomer subunit beta: TAAENVCYTLINVPMDSEPPSEISLKNDLEKGDVKSKTEALKKVIIMILNGEKLPGLLMTIIRFVLPLQDHTIKKLLLVFWEIVPKTTPDGRLLHEMILVCDAYRKDLQHPNEFIRGSTLRFLCKLKEAELLEPLMPAIRACLEHRHSYVRRNAVLAIYTIYRNFEHLIPDAPELIHDFLVNEKDASCKRNAFMMLIHADQDRALDYLSTCIDQVQTFGDILQLVIVELIYKVCHANPSERARFIRCIYNLLQSSSPAVKYEAAGTLVTLSSAPTAIKAAAQCYIDLIIKESDNNVKLIVLDRLIELKEHPAHERVLQDLVMDILRVLSTPDLEVRKKTLQLALDLVSSRNVEELVIVLKKEVIKTNNVSEHEDTDKYRQLLVRTLHSCSVRFPDMAANVIPVLMEFLSDNNEAAAADVLEFVREAIQRFDNLRMLIVEKMLEVFHAIKSVKIYRGALWILGEYCSTKEDIQSVMTEIRRSLGEIPIVESEIKKEAGELKPEEEITVGPVQKLVTEMGTYATQSALSSSRPTKKEEDRPPLRGFLLDGDFFVAASLATTLTKIALRYVALVQEKKKQNSFVAEAMLLMATILHLGKSSLPKKPITDDDVDRISLCLKVLSECSPLMNDIFNKECRQSLSHMLSAKLEEEKLSQKKESEKRNVTVQPDDPISFMQLTAKNEMNCKEDQFQLSLLAAMGNTQRKEAADPLASKLNKVTQLTGFSDPVYAEAYVHVNQYDIVLDVLVVNQTSDTLQNCTLELATLGDLKLVEKPSPLTLAPHDFANIKANVKVASTENGIIFGNIVYDVSGAASDRNCVVLSDIHIDIMDYIQPATCTDAEFRQMWAEFEWENKVTVNTNMVDLNDYLQHILKSTNMKCLTPEKALSGYCGFMAANLYARSIFGEDALANVSIEKPIHQGPDAAVTGHIRIRAKSQGMALSLGDKINLSQKKTSI
B6: sp¦Q9BX68¦HINT2_HUMAN (protein, UniProt Q9BX68 18-163, looked up)
Adenosine …: VAATGVRGGQVRGAAGVTDGNEVAKAQQATPGGAAPTIFSRILDKSLPADILYEDQQCLVFRDVAPQAPVHFLVIPKKPIPRISQAEEEDQQLLGHLLLVAKQTAKAEGLGDGYRLVINDGKLGAQSVYHLHIHVLGGRQLQWPPG

tested on: human HL60 cells; assay: SWATH-MS proteomics, differential protein representation, akirin2 KO vs WT HL60 cells; type: cell-based; conditions: akirin2 KO vs WT HL60 cells; sheet "Under-represented in KO"
Summary of the method: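 First, proteins from wild-type and knockout cells are digested with trypsin by FASP. Next, pooled IDA runs generate a reference ion library. Then six samples of 5 µg each are acquired by data-independent SWATH, and protein areas are normalized to the summed area of all detected proteins.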

Molecule | Fold Change | Log (Fold Change)
B1 | 0.4166 | -0.3803
B2 | 0.4207 | -0.376
B3 | 0.1732 | -0.7615
B4 | 0.433 | -0.3635
B5 | 0.4243 | -0.3723
B6 | 0.4303 | -0.3662
